Data published in article PMC9482650, “Quantitative fragmentomics allow affinity mapping of interactomes” (Nature Communications, 2022).

What was measured:
Experiment in all cases: holdup assay
Parameters in all cases: key: below the threshold = too weak to quantify, mostly under pKd 3.1 to 4
APBA3_1, O96018 = target: T1, APBA3_1, O96018
T1 sequence (O96018 389-490, limits assumed, looked up): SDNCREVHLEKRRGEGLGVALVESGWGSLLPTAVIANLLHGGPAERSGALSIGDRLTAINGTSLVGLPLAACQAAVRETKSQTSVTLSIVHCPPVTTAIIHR

CASK, O14936 = target: CASK, O14936
DFNB31_1, Q9P202 = target: T2, DFNB31_1, Q9P202
T2 sequence (Q9P202 135-233, limits assumed, looked up): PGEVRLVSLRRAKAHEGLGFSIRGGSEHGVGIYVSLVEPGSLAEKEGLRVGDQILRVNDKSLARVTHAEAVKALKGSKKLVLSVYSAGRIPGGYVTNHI

DFNB31_3, Q9P202 = target: T3, DFNB31_3, Q9P202
T3 sequence (Q9P202 811-907, limits assumed, looked up): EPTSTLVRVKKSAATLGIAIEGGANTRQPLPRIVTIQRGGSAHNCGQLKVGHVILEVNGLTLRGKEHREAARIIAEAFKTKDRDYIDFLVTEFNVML

DLG3_3, Q92796 = target: T4, DLG3_3, Q92796
T4 sequence (Q92796 374-475, limits assumed, looked up): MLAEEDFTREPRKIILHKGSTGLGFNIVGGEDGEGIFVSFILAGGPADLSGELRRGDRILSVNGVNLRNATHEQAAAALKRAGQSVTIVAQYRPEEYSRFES

DLG4_1, P78352 = target: DLG4_1, P78352
DLG4_2, P78352 = target: DLG4_2, P78352
FRMPD3, Q5JV73 = target: FRMPD3, Q5JV73
GRIP2_3, Q9C0E4 = target: GRIP2_3, Q9C0E4
GRIP2_4, Q9C0E4 = target: GRIP2_4, Q9C0E4
GRIP2_5, Q9C0E4 = target: GRIP2_5, Q9C0E4
GRIP2_6, Q9C0E4 = target: GRIP2_6, Q9C0E4
IL16_3, Q14005 = target: IL16_3, Q14005
Inadl_1, Q8NI35 = target: Inadl_1, Q8NI35
Inadl_8, Q8NI35 = target: Inadl_8, Q8NI35
LDB3, O75112 = target: LDB3, O75112
LIMK2, P53671 = target: LIMK2, P53671
LNX2_2, Q8N448 = target: T5, LNX2_2, Q8N448
T5 sequence (Q8N448 334-432, limits assumed, looked up): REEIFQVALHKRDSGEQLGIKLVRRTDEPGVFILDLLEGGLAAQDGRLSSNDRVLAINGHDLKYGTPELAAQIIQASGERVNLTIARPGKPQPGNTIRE

MAGI2_4, Q86UL8 = target: MAGI2_4, Q86UL8
MAGI2_6, Q86UL8 = target: MAGI2_6, Q86UL8
MAGI3_2, Q5TCQ9 = target: MAGI3_2, Q5TCQ9
MPDZ_12, O75970 = target: T6, MPDZ_12, O75970
T6 sequence (O75970 1857-1958, limits assumed, looked up): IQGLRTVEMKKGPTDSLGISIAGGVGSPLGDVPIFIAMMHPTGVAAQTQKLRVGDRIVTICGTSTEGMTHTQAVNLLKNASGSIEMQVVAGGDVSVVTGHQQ

MPP2, Q14168 = target: T7, MPP2, Q14168
T7 sequence (Q14168 180-250, limits assumed, looked up): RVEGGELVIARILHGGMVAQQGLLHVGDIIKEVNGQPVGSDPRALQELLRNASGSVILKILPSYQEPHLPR

MPP6, Q9NZW5 = target: T8, MPP6, Q9NZW5
T8 sequence (Q9NZW5 125-219, limits assumed, looked up): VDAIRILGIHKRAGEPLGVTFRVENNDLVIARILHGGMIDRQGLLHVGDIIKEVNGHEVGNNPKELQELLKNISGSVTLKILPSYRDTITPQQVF

PDZD7_3, Q9H5P4 = target: T9, PDZD7_3, Q9H5P4
T9 sequence (Q9H5P4 857-944, limits assumed, looked up): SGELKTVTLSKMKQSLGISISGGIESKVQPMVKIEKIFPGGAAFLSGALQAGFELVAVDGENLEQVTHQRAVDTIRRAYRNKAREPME

PTPN3, P26045 = target: PTPN3, P26045
SCRIB_3, Q14160 = target: SCRIB_3, Q14160
SHANK1, Q9Y566 = target: T10, SHANK1, Q9Y566
T10 sequence (Q9Y566 658-767, limits assumed, looked up): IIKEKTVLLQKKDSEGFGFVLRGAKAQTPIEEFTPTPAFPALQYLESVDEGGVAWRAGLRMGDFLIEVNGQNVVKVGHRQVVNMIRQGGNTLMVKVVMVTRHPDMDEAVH

TJP1_3, Q07157 = target: TJP1_3, Q07157
[1] = plain residues with an end cap or a label only (N-terminal biotin on a linker: ado-ado)
[2] = modified: phospho on T at position -2 from the C-terminal residue

Chain of LDB3, O75112 (O75112 1-94): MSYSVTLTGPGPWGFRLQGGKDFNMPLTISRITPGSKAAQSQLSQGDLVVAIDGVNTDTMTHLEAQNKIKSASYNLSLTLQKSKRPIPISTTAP
Chain of MAGI2_6, Q86UL8 (Q86UL8 1141-1229): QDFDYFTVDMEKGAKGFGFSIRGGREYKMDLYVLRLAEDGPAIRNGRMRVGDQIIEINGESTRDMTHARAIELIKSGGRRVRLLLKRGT
Chain of GRIP2_6, Q9C0E4 (Q9C0E4 648-740): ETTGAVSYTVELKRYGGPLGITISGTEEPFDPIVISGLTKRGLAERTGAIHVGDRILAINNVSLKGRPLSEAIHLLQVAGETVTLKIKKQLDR
Chain of LIMK2, P53671 (P53671 143-248): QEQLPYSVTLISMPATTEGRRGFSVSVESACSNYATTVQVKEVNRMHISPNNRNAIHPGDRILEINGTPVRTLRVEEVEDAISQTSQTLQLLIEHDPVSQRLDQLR
Chain of MAGI3_2, Q5TCQ9 (Q5TCQ9 398-503): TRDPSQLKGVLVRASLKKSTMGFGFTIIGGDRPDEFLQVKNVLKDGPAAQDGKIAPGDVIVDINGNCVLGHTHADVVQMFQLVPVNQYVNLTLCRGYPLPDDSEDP
Chain of Inadl_8, Q8NI35 (Q8NI35 1425-1530): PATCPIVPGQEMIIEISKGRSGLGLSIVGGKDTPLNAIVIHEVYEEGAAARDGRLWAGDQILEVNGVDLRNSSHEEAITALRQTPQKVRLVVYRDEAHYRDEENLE
Chain of SCRIB_3, Q14160 (Q14160 999-1103): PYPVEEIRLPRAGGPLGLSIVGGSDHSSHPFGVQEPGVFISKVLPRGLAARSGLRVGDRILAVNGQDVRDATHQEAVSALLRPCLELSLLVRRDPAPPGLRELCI
Chain of TJP1_3, Q07157 (Q07157 416-512): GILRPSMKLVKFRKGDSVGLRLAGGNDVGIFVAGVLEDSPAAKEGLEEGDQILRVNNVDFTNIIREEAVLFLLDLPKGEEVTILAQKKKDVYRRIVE
Chain of GRIP2_4, Q9C0E4 (Q9C0E4 446-548): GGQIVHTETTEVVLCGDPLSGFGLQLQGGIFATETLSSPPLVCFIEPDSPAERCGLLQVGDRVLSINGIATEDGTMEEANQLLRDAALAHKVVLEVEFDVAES
Chain of DLG4_2, P78352 (P78352 155-259): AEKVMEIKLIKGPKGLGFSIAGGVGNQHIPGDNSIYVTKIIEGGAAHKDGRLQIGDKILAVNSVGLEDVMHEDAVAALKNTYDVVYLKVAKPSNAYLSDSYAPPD
Chain of MAGI2_4, Q86UL8 (Q86UL8 772-865): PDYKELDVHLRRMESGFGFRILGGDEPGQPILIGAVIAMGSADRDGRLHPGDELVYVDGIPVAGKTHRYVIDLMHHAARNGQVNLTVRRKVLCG
Chain of IL16_3, Q14005 (Q14005 1107-1207): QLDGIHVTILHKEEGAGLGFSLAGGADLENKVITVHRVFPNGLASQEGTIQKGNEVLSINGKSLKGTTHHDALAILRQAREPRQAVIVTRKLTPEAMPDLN
Chain of CASK, O14936 (O14936 487-570): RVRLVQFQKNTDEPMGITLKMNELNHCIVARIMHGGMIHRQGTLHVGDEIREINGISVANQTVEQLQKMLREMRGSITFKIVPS
Chain of PTPN3, P26045 (P26045 505-587): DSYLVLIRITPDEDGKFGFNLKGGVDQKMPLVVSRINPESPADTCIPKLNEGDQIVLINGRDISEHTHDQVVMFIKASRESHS
Chain of GRIP2_5, Q9C0E4 (Q9C0E4 544-642): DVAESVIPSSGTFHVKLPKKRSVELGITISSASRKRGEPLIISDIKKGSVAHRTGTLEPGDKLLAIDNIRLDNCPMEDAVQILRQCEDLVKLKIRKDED
Chain of Inadl_1, Q8NI35 (Q8NI35 113-229): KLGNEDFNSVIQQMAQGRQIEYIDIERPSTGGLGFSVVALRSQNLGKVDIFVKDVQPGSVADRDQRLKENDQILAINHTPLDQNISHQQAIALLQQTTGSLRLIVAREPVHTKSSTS
Chain of GRIP2_3, Q9C0E4 (Q9C0E4 238-339): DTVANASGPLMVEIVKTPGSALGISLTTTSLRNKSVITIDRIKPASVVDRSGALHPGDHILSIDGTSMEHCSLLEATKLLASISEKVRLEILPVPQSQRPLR
Chain of FRMPD3, Q5JV73 (Q5JV73 12-100): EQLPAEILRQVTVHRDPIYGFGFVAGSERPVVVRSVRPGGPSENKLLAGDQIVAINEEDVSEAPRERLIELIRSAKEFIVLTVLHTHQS
Chain of DLG4_1, P78352 (P78352 62-152): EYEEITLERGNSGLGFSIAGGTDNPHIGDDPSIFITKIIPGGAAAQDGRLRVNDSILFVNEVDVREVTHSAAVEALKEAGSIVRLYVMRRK

SAGADSETHC [SLCO1B1, Q9Y6L6]
pKd (APBA3_1, O96018; [1]): below the threshold
pKd (CASK, O14936; [1]): below the threshold
pKd (DFNB31_1, Q9P202; [1]): below the threshold
pKd (DFNB31_3, Q9P202; [1]): 3.55
pKd (DLG3_3, Q92796; [1]): below the threshold
pKd (DLG4_1, P78352; [1]): below the threshold
pKd (DLG4_2, P78352; [1]): below the threshold
pKd (FRMPD3, Q5JV73; [1]): below the threshold
pKd (GRIP2_3, Q9C0E4; [1]): below the threshold
pKd (GRIP2_4, Q9C0E4; [1]): below the threshold
pKd (GRIP2_5, Q9C0E4; [1]): below the threshold
pKd (GRIP2_6, Q9C0E4; [1]): below the threshold
pKd (IL16_3, Q14005; [1]): below the threshold
pKd (Inadl_1, Q8NI35; [1]): below the threshold
pKd (Inadl_8, Q8NI35; [1]): below the threshold
pKd (LDB3, O75112; [1]): below the threshold
pKd (LIMK2, P53671; [1]): below the threshold
pKd (LNX2_2, Q8N448; [1]): below the threshold
pKd (MAGI2_4, Q86UL8; [1]): below the threshold
pKd (MAGI2_6, Q86UL8; [1]): below the threshold
pKd (MAGI3_2, Q5TCQ9; [1]): below the threshold
pKd (MPDZ_12, O75970; [1]): below the threshold
pKd (MPP2, Q14168; [1]): below the threshold
pKd (MPP6, Q9NZW5; [1]): 3.58
pKd (PDZD7_3, Q9H5P4; [1]): below the threshold
pKd (PTPN3, P26045; [1]): 4.01
pKd (SCRIB_3, Q14160; [1]): 3.88
pKd (SHANK1, Q9Y566; [1]): below the threshold
pKd (TJP1_3, Q07157; [1]): below the threshold

SRSRRRETAL [HPV33-E6_-2P, P06427]
pKd (APBA3_1, O96018; [2]): below the threshold
pKd (CASK, O14936; [2]): below the threshold
pKd (DFNB31_1, Q9P202; [2]): below the threshold
pKd (DFNB31_3, Q9P202; [2]): 4.02
pKd (DLG3_3, Q92796; [2]): below the threshold
pKd (DLG4_1, P78352; [2]): below the threshold
pKd (DLG4_2, P78352; [2]): below the threshold
pKd (FRMPD3, Q5JV73; [2]): below the threshold
pKd (GRIP2_3, Q9C0E4; [2]): below the threshold
pKd (GRIP2_4, Q9C0E4; [2]): below the threshold
pKd (GRIP2_5, Q9C0E4; [2]): below the threshold
pKd (GRIP2_6, Q9C0E4; [2]): below the threshold
pKd (IL16_3, Q14005; [2]): below the threshold
pKd (Inadl_1, Q8NI35; [2]): below the threshold
pKd (Inadl_8, Q8NI35; [2]): below the threshold
pKd (LDB3, O75112; [2]): below the threshold
pKd (LIMK2, P53671; [2]): below the threshold
pKd (LNX2_2, Q8N448; [2]): below the threshold
pKd (MAGI2_4, Q86UL8; [2]): below the threshold
pKd (MAGI2_6, Q86UL8; [2]): below the threshold
pKd (MAGI3_2, Q5TCQ9; [2]): below the threshold
pKd (MPDZ_12, O75970; [2]): below the threshold
pKd (MPP2, Q14168; [2]): below the threshold
pKd (MPP6, Q9NZW5; [2]): 3.68
pKd (PDZD7_3, Q9H5P4; [2]): 3.74
pKd (PTPN3, P26045; [2]): 4.02
pKd (SCRIB_3, Q14160; [2]): below the threshold
pKd (SHANK1, Q9Y566; [2]): below the threshold
pKd (TJP1_3, Q07157; [2]): below the threshold

DYSNLRETDI [ADRA1D, P25100]
pKd (APBA3_1, O96018; [1]): below the threshold
pKd (CASK, O14936; [1]): below the threshold
pKd (DFNB31_1, Q9P202; [1]): 5.02
pKd (DFNB31_3, Q9P202; [1]): 3.91
pKd (DLG3_3, Q92796; [1]): below the threshold
pKd (DLG4_1, P78352; [1]): 3.89
pKd (DLG4_2, P78352; [1]): 4.54
pKd (FRMPD3, Q5JV73; [1]): below the threshold
pKd (GRIP2_3, Q9C0E4; [1]): below the threshold
pKd (GRIP2_4, Q9C0E4; [1]): below the threshold
pKd (GRIP2_5, Q9C0E4; [1]): below the threshold
pKd (GRIP2_6, Q9C0E4; [1]): below the threshold
pKd (IL16_3, Q14005; [1]): below the threshold
pKd (Inadl_1, Q8NI35; [1]): below the threshold
pKd (Inadl_8, Q8NI35; [1]): 3.56
pKd (LDB3, O75112; [1]): below the threshold
pKd (LIMK2, P53671; [1]): below the threshold
pKd (LNX2_2, Q8N448; [1]): below the threshold
pKd (MAGI2_4, Q86UL8; [1]): below the threshold
pKd (MAGI2_6, Q86UL8; [1]): 4.31
pKd (MAGI3_2, Q5TCQ9; [1]): below the threshold
pKd (MPDZ_12, O75970; [1]): below the threshold
pKd (MPP2, Q14168; [1]): below the threshold
pKd (MPP6, Q9NZW5; [1]): 3.63
pKd (PDZD7_3, Q9H5P4; [1]): 4.97
pKd (PTPN3, P26045; [1]): 4.57
pKd (SCRIB_3, Q14160; [1]): 5.27
pKd (SHANK1, Q9Y566; [1]): below the threshold
pKd (TJP1_3, Q07157; [1]): below the threshold
